From patent US20200339690A1 (JOUNCE THERAPEUTICS, published 2020)

Assays:
human LILRA2 = biological target: T1, human LILRA2 (human, UniProt Q8N149 24-483); assay: flow cytometry, LILRA2 CHOs
T1 construct: Over-expressed on CHO-s cells; also called hLILRA2

[1] = biological target: T2, human LILRB2 expressed on cells (human, UniProt Q8N423 22-597); assay: flow cytometry, LILRB2 CHOs
T2 construct: CHO-s cells over-expressing full-length human LILRB2, or primary human macrophages and dendritic cells; also called hLILRB2-CHO-s; hLILRB2+ CHO-s
T2 sequence (Q8N423 other isoform, or with tags, fused parts or gaps limits assumed): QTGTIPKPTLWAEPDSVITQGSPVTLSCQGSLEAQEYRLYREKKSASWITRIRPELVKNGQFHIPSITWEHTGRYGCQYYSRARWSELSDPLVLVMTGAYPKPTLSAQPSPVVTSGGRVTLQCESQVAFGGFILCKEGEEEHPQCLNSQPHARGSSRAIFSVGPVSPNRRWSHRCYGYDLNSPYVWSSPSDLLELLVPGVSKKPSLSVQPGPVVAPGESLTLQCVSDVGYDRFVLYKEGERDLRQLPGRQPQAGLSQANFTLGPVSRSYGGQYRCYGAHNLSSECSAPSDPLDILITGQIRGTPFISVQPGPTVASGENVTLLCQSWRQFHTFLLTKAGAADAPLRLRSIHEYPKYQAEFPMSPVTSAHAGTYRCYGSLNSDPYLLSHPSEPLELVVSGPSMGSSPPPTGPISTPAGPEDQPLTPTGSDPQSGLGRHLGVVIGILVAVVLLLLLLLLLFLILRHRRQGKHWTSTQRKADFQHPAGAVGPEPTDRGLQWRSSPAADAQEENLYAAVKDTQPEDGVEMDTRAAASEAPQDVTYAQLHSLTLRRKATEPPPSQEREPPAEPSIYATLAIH

human LILRB1 = biological target: T3, human LILRB1 (human, UniProt Q8NHL6 24-650); assay: flow cytometry, LILRB1 CHOs
T3 construct: Over-expressed on CHO-s cells; also called hLILRB1
T3 sequence (Q8NHL6 24-650 limits assumed): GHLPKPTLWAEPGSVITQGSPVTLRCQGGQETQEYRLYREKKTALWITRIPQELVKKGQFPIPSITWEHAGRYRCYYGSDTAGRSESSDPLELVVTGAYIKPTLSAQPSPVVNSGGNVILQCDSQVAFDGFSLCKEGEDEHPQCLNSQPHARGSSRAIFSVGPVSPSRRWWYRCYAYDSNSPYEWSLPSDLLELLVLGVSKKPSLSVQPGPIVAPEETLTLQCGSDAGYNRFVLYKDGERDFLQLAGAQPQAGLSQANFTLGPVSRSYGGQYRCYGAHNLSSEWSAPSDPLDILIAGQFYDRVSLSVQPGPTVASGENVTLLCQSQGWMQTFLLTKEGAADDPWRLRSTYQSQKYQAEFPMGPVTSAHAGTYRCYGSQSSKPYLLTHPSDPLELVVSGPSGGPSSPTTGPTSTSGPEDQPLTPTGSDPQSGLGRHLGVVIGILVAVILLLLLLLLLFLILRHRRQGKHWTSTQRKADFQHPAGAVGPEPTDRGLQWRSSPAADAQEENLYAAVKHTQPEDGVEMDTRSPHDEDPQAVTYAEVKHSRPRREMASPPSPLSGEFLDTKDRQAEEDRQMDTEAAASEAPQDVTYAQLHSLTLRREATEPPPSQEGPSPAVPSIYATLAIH

[2] = biological target: T2, human LILRB2 expressed on cells; assay: blocking of HLA-A2 tetramer on LILRB2 CHOs, flow cytometry, mAb 10 ug/mL
Experimental: (§1) In the secondary screen, 1×10⁵ CHO-s cells over-expressing human LILRB2 were plated in 96-well round-bottom tissue culture-treated plate and washed twice with 1×DPBS (Gibco) and incubated with 10 μg/mL primary antibody (anti-LILRB2 mAbs or control) prepared in 50 μL FACS buffer (1×DPBS containing 2% HI-FBS (Sigma)+0.05% Sodium Azide). After incubation with mAbs for 30 minutes at 4° C., cells were washed twice in FACS buffer and then resuspended in 50 μL of FACS buffer containing 5 μg/mL APC-conjugated HLA-A2 or HLA-G tetramer (Fred Hutch). Cells were incubated protected from light for 30-60 minutes at 4° C. After incubation with tetramer, cells were washed in FACS buffer and re-suspended in fix buffer (1.5% paraformaldehyde diluted in 1×DPBS). Samples were analyzed using the Celesta flow cytometer analyzer (BD Biosciences). Data represent percent tetramer blocked by mAbs relative to tetramer alone, calculated according to the following equation: […]

human LILRA3 = biological target: T4, human LILRA3 (human, UniProt Q8N6C8 24-439); assay: flow cytometry, LILRA3 CHOs
T4 construct: Over-expressed on CHO-s cells; also called hLILRA3
T4 sequence (Q8N6C8 24-439 limits assumed): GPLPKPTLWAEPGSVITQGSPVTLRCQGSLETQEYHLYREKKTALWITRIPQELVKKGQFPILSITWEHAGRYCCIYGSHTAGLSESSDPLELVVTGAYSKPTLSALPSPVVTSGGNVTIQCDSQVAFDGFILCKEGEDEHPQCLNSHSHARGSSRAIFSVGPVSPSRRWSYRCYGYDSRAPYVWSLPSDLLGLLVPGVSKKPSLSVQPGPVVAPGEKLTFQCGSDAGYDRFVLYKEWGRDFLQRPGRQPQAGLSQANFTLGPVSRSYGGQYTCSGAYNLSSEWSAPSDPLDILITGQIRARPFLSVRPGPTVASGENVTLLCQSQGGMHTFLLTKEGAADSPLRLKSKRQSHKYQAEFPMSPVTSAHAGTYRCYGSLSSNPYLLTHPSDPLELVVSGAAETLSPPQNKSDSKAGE

[3] = biological target: T2, human LILRB2 expressed on cells; assay: blocking of HLA-G tetramer on LILRB2 CHOs, flow cytometry, mAb 10 ug/mL
Experimental: as §1

human LILRB4 = biological target: T5, human LILRB4 (human, UniProt Q8NHJ6 22-448); assay: flow cytometry, LILRB4 CHOs
T5 construct: Over-expressed on CHO-s cells; also called hLILRB4

human LILRB3 = biological target: T6, human LILRB3 (human, UniProt O75022 24-631); assay: flow cytometry, LILRB3 CHOs
T6 construct: Over-expressed on CHO-s cells; also called hLILRB3

human LILRA5 = biological target: T7, human LILRA5 (human, UniProt A6NI73 42-299); assay: flow cytometry, LILRA5 CHOs
T7 construct: Over-expressed on CHO-s cells; also called hLILRA5
T7 sequence (A6NI73 42-299 limits assumed): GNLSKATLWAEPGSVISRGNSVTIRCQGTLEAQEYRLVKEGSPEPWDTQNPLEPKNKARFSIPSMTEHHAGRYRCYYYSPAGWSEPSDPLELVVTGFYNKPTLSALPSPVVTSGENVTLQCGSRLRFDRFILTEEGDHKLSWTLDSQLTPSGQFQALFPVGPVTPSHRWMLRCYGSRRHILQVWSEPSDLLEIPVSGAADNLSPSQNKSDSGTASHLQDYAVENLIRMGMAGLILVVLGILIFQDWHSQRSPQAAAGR

human LILRB5 = biological target: T8, human LILRB5 (human, UniProt O75023 24-590); assay: flow cytometry, LILRB5 CHOs
T8 construct: Over-expressed on CHO-s cells; also called hLILRB5
T8 sequence (O75023 24-590 P542R limits assumed): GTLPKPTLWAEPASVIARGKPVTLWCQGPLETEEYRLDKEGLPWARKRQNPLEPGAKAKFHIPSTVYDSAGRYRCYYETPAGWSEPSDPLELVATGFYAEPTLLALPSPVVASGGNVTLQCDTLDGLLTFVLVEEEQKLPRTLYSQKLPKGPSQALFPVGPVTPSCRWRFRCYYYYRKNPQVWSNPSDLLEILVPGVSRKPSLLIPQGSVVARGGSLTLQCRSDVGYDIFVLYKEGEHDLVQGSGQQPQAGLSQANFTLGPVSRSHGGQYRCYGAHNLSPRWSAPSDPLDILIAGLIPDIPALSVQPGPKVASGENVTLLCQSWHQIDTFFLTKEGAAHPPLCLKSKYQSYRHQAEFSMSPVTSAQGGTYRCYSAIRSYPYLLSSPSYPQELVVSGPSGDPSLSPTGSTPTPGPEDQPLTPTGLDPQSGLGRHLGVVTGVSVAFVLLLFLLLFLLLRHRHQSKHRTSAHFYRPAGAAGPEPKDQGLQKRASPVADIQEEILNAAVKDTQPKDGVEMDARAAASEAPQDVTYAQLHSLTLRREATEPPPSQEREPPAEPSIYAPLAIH

[4] = biological target: T2, human LILRB2 expressed on cells; assay: cell-based or functional assay
human LILRA1 = biological target: T9, human LILRA1 (human, UniProt O75019 17-489); assay: flow cytometry, LILRA1 CHOs
T9 construct: Over-expressed on CHO-s cells; also called hLILRA1
T9 sequence (O75019 17-489 limits assumed): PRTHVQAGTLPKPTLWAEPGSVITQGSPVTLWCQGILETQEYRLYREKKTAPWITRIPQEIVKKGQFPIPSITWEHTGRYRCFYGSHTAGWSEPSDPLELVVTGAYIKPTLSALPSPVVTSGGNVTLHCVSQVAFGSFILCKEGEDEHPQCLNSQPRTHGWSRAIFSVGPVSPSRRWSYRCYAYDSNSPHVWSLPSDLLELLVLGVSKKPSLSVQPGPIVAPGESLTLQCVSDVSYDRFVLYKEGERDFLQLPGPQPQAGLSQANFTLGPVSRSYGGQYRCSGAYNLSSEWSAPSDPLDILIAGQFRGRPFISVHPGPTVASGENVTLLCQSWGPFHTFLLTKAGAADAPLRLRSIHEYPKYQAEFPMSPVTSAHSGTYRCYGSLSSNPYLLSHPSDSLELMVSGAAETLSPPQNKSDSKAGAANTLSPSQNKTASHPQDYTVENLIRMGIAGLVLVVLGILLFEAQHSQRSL

human LILRA6 = biological target: T10, human LILRA6 (human, UniProt Q6PI73 24-481); assay: flow cytometry, LILRA6 CHOs
T10 construct: Over-expressed on CHO-s cells; also called hLILRA6
T10 sequence (Q6PI73 24-481 limits assumed): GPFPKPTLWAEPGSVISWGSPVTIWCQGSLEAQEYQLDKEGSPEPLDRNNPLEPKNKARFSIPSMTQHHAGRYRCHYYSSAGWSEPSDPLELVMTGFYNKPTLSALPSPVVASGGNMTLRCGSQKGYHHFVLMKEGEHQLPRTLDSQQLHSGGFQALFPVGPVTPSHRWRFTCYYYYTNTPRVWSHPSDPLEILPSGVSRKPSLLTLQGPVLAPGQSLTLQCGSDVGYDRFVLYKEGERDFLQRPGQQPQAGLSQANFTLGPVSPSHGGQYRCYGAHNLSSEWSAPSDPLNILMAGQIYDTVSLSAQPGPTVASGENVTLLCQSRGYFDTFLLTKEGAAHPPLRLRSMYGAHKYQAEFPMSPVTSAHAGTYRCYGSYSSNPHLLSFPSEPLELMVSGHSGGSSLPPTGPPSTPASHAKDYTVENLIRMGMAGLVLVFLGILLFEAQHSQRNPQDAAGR

T1 sequence (Q8N149 24-483 S135L limits assumed): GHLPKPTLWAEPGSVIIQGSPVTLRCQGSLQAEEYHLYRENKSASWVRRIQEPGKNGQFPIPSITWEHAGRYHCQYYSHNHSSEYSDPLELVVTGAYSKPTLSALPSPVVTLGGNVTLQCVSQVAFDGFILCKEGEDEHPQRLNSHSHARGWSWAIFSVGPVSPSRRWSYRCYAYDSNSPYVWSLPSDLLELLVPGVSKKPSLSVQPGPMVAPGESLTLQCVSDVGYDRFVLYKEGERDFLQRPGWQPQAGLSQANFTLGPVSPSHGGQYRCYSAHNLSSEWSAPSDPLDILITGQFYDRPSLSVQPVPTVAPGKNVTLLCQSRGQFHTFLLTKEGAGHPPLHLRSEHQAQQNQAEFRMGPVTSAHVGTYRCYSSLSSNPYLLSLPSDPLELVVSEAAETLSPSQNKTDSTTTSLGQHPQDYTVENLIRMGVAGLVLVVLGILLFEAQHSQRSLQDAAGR

Row | Binder | binding (fold over iso) (human LILRA2) | binding result (human LILRA2) | binding (fold over iso) [1] [fold over iso] | binding (fold over iso) (human LILRB1) | binding result (human LILRB1) | HLA-A2:LILRB2 CHOs blocking (% blocked) [2] [% blocked] | binding (fold over iso) (human LILRA3) | binding result (human LILRA3) | HLA-G:LILRB2 CHOs blocking (% blocked) [3] [% blocked] | binding (fold over iso) (human LILRB4) | binding result (human LILRB4) | binding (fold over iso) (human LILRB3) | binding result (human LILRB3) | binding (fold over iso) (human LILRA5) | binding result (human LILRA5) | binding (fold over iso) (human LILRB5) | binding result (human LILRB5) | CCL2 production (fold over LPS alone) [4] [fold over LPS alone] | IL-6 production (fold over LPS alone) [4] [fold over LPS alone] | IL-10 production (fold over LPS alone) [4] [fold over LPS alone] | further results
1 | J-03 (antibody, human IgG4 S228P, kappa, V domains shown, Human IgG4 chimera of murine origin) VH: QVQLQQSGAELVRPGASVTLSCKASGYKFTDYEMHWVKQTPVHGLEWIGAIDPETNGTAYNKKFKGKAILTADKSSSTAYMELRSLTSEDSAVYYCTRGDYDFSAWFAYWGQGTLVTVSA VL: DIVLTQSPASLAVSLGQRATISCRASESVDNYDISFMHWYQQKPGQPPKLLIYRASNLESGIPARFSGSGSRTDFTLTINPVETDDVATYYCQQSNKDPRTFGGGTKLEIKR | 1.58 | no binding | 30.1 | 0.94 | no binding | -208 | 1.05 | no binding | -156 | 1.02 | no binding | 0.97 | no binding | 0.96 | no binding | 1 | no binding | 0.95 | 1.1 | 0.97 | TNFa production (fold over LPS alone) [4]: 1.27 fold over LPS alone; binding (fold over iso) (human LILRA1): 0.89 fold over iso; binding result (human LILRA1): no binding; binding (fold over iso) (human LILRA6): 1.23 fold over iso; binding result (human LILRA6): no binding
2 | J-04 (antibody, human IgG4 S228P, kappa, V domains shown, Human IgG4 chimera of murine origin) VH: QVQLQQSGAELVRPGASVTLSCKASGYTFADYEIHWVKQTPVHGLEWIGAIDPETGGTAYNQKFKGKAILTADKSSSTAYMELRSLTSEDSAVYYCTRYYDYDDAMDYWGQGTSVTVSS VL: QIVLTQSPAIMSASPGEKVTMTCSASSSVSFMHWYQQKSGTSPKRWIYGTSKLASGVPARFSGSGSGTSYSLTISSMEAEDAATYYCQQWNGNPFTFGSGTKLETKR | 1.62 | no binding | 33.8 | 0.95 | no binding | -319 | 0.93 | no binding | -255 | 0.83 | no binding | 0.9 | no binding | 0.74 | no binding | 1.08 | no binding | 1 | 1.36 | 0.95 | TNFa production (fold over LPS alone) [4]: 1.18 fold over LPS alone; binding (fold over iso) (human LILRA1): 0.88 fold over iso; binding result (human LILRA1): no binding; binding (fold over iso) (human LILRA6): 1.3 fold over iso; binding result (human LILRA6): no binding
